Assay results published in patent US12466878 (dated 2025).

Target: HLA-A*02:01 (human;)
Experiment: ELISA

Kd: 0.874 nM
Binder: KIQEILTQV [IGF2BP3-001 peptide KIQEILTQV (SEQ ID NO: 1)]
